Where no end group is shown, it is not given here.
B1: endogenous Nup50 (other, human, UniProt Q9UKX7 1-468, looked up)
chain: MAKRNAEKELTDRNWDQEDEAEEVGTFSMASEEVLKNRAIKKAKRRNVGFESDTGGAFKGFKGLVVPSGGGRFSGFGSGAGGKPLEGLSNGNNITSAPPFASAKAAADPKVAFGSLAANGPTTLVDKVSNPKTNGDSQQPSSSGLASSKACVGNAYHKQLAALNCSVRDWIVKHVNTNPLCDLTPIFKDYEKYLANIEQQHGNSGRNSESESNKVAAETQSPSLFGSTKLQQESTFLFHGNKTEDTPDKKMEVASEKKTDPSSLGATSASFNFGKKVDSSVLGSLSSVPLTGFSFSPGNSSLFGKDTTQSKPVSSPFPTKPLEGQAEGDSGECKGGDEEENDEPPKVVVTEVKEEDAFYSKKCKLFYKKDNEFKEKGIGTLHLKPTANQKTQLLVRADTNLGNILLNVLIPPNMPCTRTGKNNVLIVCVPNPPIDEKNATMPVTMLIRVKTSEDADELHKILLEKKDA
notes: Detected with anti-Nup50
B2: endogenous Nup62 (other, human, UniProt P37198 2-522, looked up)
chain: SGFNFGGTGAPTGGFTFGTAKTATTTPATGFSFSTSGTGGFNFGAPFQPATSTPSTGLFSLATQTPATQTTGFTFGTATLASGGTGFSLGIGASKLNLSNTAATPAMANPSGFGLGSSNLTNAISSTVTSSQGTAPTGFVFGPSTTSVAPATTSGGFSFTGGSTAQPSGFNIGSAGNSAQPTAPATLPFTPATPAATTAGATQPAAPTPTATITSTGPSLFASIATAPTSSATTGLSLCTPVTTAGAPTAGTQGFSLKAPGAASGTSTTTSTAATATATTTSSSSTTGFALNLKPLAPAGIPSNTAAAVTAPPGPGAAAGAAASSAMTYAQLESLINKWSLELEDQERHFLQQATQVNAWDRTLIENGEKITSLHREVEKVKLDQKRLDQELDFILSQQKELEDLLSPLEELVKEQSGTIYLQHADEEREKTYKLAENIDAQLKRMAQDLKDIIEHLNTSGAPADTSDPLQQICKILNAHMDSLQWIDQNSALLQRKVEEVTKVCEGRRKEQERSFRITFD
notes: Detected with anti-Nup62

How the values were obtained:
[1] = biological target: endogenous importin-α1 (human, UniProt P52292 2-529); assay: co-IP of GFP-tagged KPNB1 truncations, western blot
From the text: (§1) FIG. 21A) Schematic domain structure of KPNB1. KPNB1 is comprised of 19 HEAT repeats (H1-19). RanGTP and importin-α interact with H1-8 and H8-19, respectively. FG-Nups bind to two regions of KPNB1, H5-7 and H14-16. FIG. 21B) Lysates from HEK293T cells expressing GFP, GFP-KPNB1 full-length (FL), N-terminal fragments of KPNB1 (H1-9 . . . H1) or the C-terminal fragment of KPNB1 (H10-19) were subjected to immunoprecipitation with GFP-Trap magnetic beads. Whole cell lysates (input) and immunoprecipitates (IP) were subjected to western blot analysis using indicated antibodies. KPNB1 H1-8, the smallest fully active KPNB1 fragment in reducing TDP-43 aggregation, strongly interacts with FG-Nups and Ran, and weakly with importin-al in comparison with full-length KPNB1. FIG. 21C) (Top) Schematic domain structure of KPNB1 H1-8^mNIS harboring four missense mutations (1178A, F217A, Y255A, I263R) in the nucleoporin-interacting site (NIS). (Bottom) Lysates from HEK293T cells expressing GFP, GFP-KPNB1 H1-8^WT or H1-8^mNIS were subjected to immunoprecipitation with GFP-Trap magnetic beads. Whole cell lysates (input) and immunoprecipitates (IP) were subjected to western blot analysis using indicated antibodies. […] Hoechst staining was used to outline nuclei. Scale bar: 5 μm. […] Statistical analysis was performed using one-way ANOVA and Bonferroni's post hoc test (**p<0.01, ***p<0.001, n=4). FIG. 21F) IF of HEK293T cells co-expressing GFP-(GR)₁₀₀ with an empty plasmid (ctrl), FLAG-tagged KPNB1 H1-8^WT or H1-8^mNIS and stained for endogenous TDP-43. Unlike KPNB1 H1-8^mNIS, KPNB1 H1-8^WT prevents the sequestration of endogenous TDP-43 in cytoplasmic GR aggregates. Arrowheads point to cytoplasmic GR aggregates. Hoechst staining was used to outline nuclei. Scale bar: 5 μm.

[2] = biological target: B1; assay: as above
From the text: as §1

[3] = biological target: B2; assay: as above
From the text: as §1

[4] = biological target: endogenous Ran (human, UniProt P62826 2-216); assay: as above
From the text: as §1

[5] = biological target: T1, Untagged KPNB1 (Homo sapiens (Human), UniProt Q14974 1-876); assay: GFP-Trap IP from HEK293T lysates, western blot
T1 construct: KPNB1 amplified by PCR and cloned into pEGFP-C1 lacking the GFP tag; also called Wildtype KPNB1
From the text: FIGS. 29A-29C: Untagged KPNB1 interacts with both the RRM2 and PrLD of TDP-CTF. FIG. 29A) (Left) Lysates from HEK293T cells expressing GFP alone, or untagged KPNB1 with GFP, GFP-TDP-CTF or GFP-TDP43^WT were subjected to immunoprecipitation with GFP-Trap magnetic beads. Whole cell lysates (input) and immunoprecipitates (IP) were subjected to western blot analysis using indicated antibodies. (Right) Quantification of relative KPNB1 levels in IP normalized by KPNB1 levels in input. Statistical analysis was performed using one-way ANOVA and Bonferroni's post hoc test (**p<0.01, ***p<0.001, n=3). […] FIG. 29C) (Left) Lysates from HEK293T cells expressing GFP alone, or untagged KPNB1 with GFP, GFP-TDP-CTF, GFP-TDP-CTF^non-PrLD or GFP-TDP-PrLD were subjected to immunoprecipitation with GFP-Trap magnetic beads. Whole cell lysates (input) and immunoprecipitates (IP) were subjected to western blot analysis using indicated antibodies. (Right) Quantification of relative KPNB1 levels in IP normalized by KPNB1 levels in input. Statistical analysis was performed using one-way ANOVA and Bonferroni's post hoc test (***p<0.001, n=3).
FIGS. 31A-31C: The PrLD of TDP-43 interacts with FG-Nups and KPNB1. FIG. 31A) Immunofluorescence (IF) of HEK293T cells expressing GFP or GFP-TDP-PrLD and stained for endogenous Nup98 and Nup62. TDP-PrLD forms small cytoplasmic foci positive for Nup62. FIG. 31B) IF of HEK293T cells expressing GFP or GFP-TDP-PrLD and stained for endogenous KPNB1. KPNB1 colocalizes with TDP-PrLD foci in the cytoplasm. Hoechst staining was used to outline nuclei. Scale bar: 5 μm. FIG. 31C) Lysates from HEK293T cells expressing GFP or GFP-TDP-PrLD were subjected to immunoprecipitation with GFP-Trap magnetic beads. Whole cell lysates (input) and immunoprecipitates (IP) were subjected to western blot analysis using indicated antibodies. The PrLD of TDP-43 interacts with Nup62, Nup98 and KPNB1, but not with Ran.
HEK293T cells were seeded in 6-well plates and transfected for 48 hours. Cells were then lysed in IP Lysis buffer (Fisher) supplemented with a protease inhibitor cocktail (Roche), and were centrifuged at 15000 rpm for 20 minutes at 4° C. A small aliquot of the recovered supernatant was set aside (input).

[6] = biological target: T2, GFP-KPNB1 full-length (FL) (Homo sapiens (Human), UniProt Q14974 1-876); assay: co-IP of GFP-tagged KPNB1 truncations, western blot
T2 construct: the plasmid is GFP-KPNB1 (Euroscarf #P30478); The linker is stated in general for fluorescent protein fusions; also called EGFP-KPNB1; GFP-KPNB1^FL; not shown: GFP/EGFP tag (pEGFP-C1, Clontech)
From the text: as §1

T2 sequence (Q14974 other isoform, or with tags, fused parts or gaps): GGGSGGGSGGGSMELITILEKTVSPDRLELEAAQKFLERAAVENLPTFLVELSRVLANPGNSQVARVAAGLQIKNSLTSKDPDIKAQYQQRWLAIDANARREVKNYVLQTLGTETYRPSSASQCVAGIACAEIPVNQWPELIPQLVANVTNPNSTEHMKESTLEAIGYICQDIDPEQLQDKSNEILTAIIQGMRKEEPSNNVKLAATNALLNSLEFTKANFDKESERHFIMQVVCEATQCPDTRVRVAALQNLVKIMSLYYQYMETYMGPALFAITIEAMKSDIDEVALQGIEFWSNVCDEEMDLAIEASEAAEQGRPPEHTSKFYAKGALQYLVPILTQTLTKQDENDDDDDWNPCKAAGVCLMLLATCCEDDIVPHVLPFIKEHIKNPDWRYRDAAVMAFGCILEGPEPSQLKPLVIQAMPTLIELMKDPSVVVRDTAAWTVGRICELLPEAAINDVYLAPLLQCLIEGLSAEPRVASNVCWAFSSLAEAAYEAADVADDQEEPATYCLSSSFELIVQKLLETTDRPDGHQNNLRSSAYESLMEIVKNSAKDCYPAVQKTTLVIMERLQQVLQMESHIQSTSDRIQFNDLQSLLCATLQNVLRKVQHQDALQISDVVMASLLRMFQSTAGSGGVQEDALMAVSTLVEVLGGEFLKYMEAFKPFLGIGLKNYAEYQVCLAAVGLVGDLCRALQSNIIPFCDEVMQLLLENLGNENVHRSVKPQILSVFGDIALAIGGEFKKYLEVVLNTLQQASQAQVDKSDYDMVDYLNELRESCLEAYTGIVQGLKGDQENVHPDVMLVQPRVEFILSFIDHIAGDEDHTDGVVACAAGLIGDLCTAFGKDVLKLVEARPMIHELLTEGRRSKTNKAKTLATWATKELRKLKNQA
T1 sequence (Q14974 whole entry): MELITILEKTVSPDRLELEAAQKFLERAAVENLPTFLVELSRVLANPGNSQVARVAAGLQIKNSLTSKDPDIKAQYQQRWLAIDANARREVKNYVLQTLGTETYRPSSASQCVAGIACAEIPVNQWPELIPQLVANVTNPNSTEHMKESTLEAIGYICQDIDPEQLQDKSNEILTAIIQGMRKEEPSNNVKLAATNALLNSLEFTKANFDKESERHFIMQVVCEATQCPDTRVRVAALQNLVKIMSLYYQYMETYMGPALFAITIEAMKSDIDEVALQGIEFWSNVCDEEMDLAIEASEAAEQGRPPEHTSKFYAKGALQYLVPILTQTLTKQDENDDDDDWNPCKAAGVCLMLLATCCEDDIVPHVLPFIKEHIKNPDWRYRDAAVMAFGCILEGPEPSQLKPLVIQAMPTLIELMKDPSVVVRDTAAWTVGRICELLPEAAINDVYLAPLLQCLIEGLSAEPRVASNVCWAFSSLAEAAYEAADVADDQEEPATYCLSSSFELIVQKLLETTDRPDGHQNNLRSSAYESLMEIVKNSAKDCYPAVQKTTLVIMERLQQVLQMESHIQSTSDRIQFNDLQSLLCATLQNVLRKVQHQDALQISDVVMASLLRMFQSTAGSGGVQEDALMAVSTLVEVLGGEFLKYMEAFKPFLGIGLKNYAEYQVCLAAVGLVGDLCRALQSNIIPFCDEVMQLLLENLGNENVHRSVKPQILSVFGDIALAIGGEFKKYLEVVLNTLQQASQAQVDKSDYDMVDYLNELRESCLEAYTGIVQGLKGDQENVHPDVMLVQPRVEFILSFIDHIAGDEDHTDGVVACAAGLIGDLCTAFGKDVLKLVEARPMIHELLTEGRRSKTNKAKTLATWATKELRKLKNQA

Binder	binding result [1]	binding result [2]	binding result [3]	binding result [4]	binding result [5]	binding result [6]
{GFP}-GGGSGGGSGGGSMELITILEKTVSPDRLELEAAQKFLERAAVEN (receptor, also: GFP tag fused N-terminally, not in chain, (GGGS)3 linker in chain, not shown: GFP/EGFP tag (pEGFP-C1, Clontech)) [GFP-KPNB1 H1]	no binding	no binding	no binding	no binding	–	–
GFP-KPNB1 H1-6 (receptor, not shown: GFP/EGFP tag (pEGFP-C1, Clontech)) GGGSGGGSGGGSMELITILEKTVSPDRLELEAAQKFLERAAVENLPTFLVELSRVLANPGNSQVARVAAGLQIKNSLTSKDPDIKAQYQQRWLAIDANARREVKNYVLQTLGTETYRPSSASQCVAGIACAEIPVNQWPELIPQLVANVTNPNSTEHMKESTLEAIGYICQDIDPEQLQDKSNEILTAIIQGMRKEEPSNNVKLAATNALLNSLEFTKANFDKESERHFIMQVVCEATQCPDTRVRVAALQNLVKIMSLYY	no binding	no binding	no binding	no binding	–	–
GFP-TDP-CTF non-PrLD (other, human, not shown: GFP/EGFP tag (pEGFP-C1, Clontech)) GGGSGGGSGGGSREFFSQYGDVMDVFIPKPFRAFAFVTFADDQIAQSLCGEDLIIKGISVHISNAEPKHNSNRQLERSG	–	–	–	–	binds	–
GFP-KPNB1 H1-2 (receptor, not shown: GFP/EGFP tag (pEGFP-C1, Clontech)) GGGSGGGSGGGSMELITILEKTVSPDRLELEAAQKFLERAAVENLPTFLVELSRVLANPGNSQVARVAAGLQIKNSLTSKDPD	no binding	no binding	no binding	no binding	–	–
B1	–	–	–	–	–	binds
B2	–	–	–	–	–	binds
